B1: Lysine-specific demethylase 2B, residues 656 to 722; numbered along this chain, Q8NHM5 (parent)
chain: LPHTAVCLVCGEAGKEDTVEEEEGKFNLMLMECSICNEIIHPGCLKIKESEGVVNDELPNCWECPKC

Variants of: B1
Test: abundance fitness (aPCA) (normalised: wild type 0, dead -1); higher = more abundant; growth selection in yeast, the domain comes from the species named
Conditions: Homo sapiens

Abundance fitness: each site, then its substitutions
M31: K -0.093; I -0.238; L -0.053; G -0.485; Q -0.662; T -0.405; F -0.272; C -0.219; V -0.276; R -0.141; Y -0.317; S -0.446; W -0.229; A -0.18; P -0.847; H -0.25
G24: Q -0.123; K -0.051; L 0.045; V -0.021; N 0.123; R -0.121; M 0.375; S 0.15; I -0.049; H 0.346; C -0.415; P -0.481; A 0.011; E 0.013; F 0.006; T 0.019; W -0.526; Y 0.154
C33: D -0.852; Q -0.581; L -0.765; A -0.912; E -0.619; T -0.753; Y -0.621; V -1.24; S -0.716; K -0.6; R -0.593; P -0.729; M -0.642; G -0.629; N -0.481; W -1.02
E20: W -0.4; H -0.176; T -0.169; P -0.081; C -0.105; A -0.046; G 0.035; D -0.276; L -0.146; S -0.191; Q -0.126; V -0.03; F -0.343; R 0.033
K25: Y -0.677; N -0.118; V -0.525; H -0.31; A -0.242; F -0.602; W -0.859; G -0.33; C -0.329; M -0.238; I -0.453; L -0.441; T -0.432; P -0.787; S -0.348; R -0.324
I40: C -0.06; A 0.008
N27: C -0.706; K 0.064; S -0.085; V -0.472; A 0.091; G -0.113; Q -0.206; L -0.137; P -0.038; E -0.044; T -0.169; M 0.077; I -0.275; Y -0.179; F -0.22; D -0.058; R -0.036
E22: H -0.099; L -0.011; M 0.113; N -0.162; T 0.171; K 0.261; G -0.009; W -0.308; P -0.449; A 0.032; Q 0.086; I -0.131; C -0.235; D -0.153; Y -0.291; V -0.049; S -0.01
E21: C -0.068; L -0.284; V 0.06; G 0.12; A 0.107; R 0.034; Y -0.035; P 0.033; M -0.062; K 0.022; I -0.566; H 0.264; T 0.238; F -0.559; D -0.028; W -0.354; Q -0.324; S 0.305
L30: A -0.35; N -0.152; R -0.196; P -0.435; M -0.373; W -0.309; K -0.034; Q -0.337; G -0.209; C -0.232; H -0.603; F -0.778; S -0.452; T -0.212
E23: A 0.004; V 0.035; M -0.088; T -0.028; R -0.058; C -0.193; D -0.016; L -0.354; W -0.554; S 0.185; Y -0.36; K 0.157; Q -0.21; P -0.342; N -0.05; F -0.058; G 0.13
C36: E -0.736; W -1.38; N -0.707; H -1.18; L -0.643; D -0.549; V -0.921; A -0.78; I -0.477; R -0.72; T -0.961; F -1.21; G -0.794; M -0.619; S -0.994
L28: R -0.148; Y -0.169; F 0.081; N 0.476; M 0.364; D -0.068; T 0.241; K 0.152; P -0.162; H 0.118; S 0.068; A 0.124; C -0.16; W 0.039; G -0.076
V19: W -0.429; M -0.067; T 0.013; L 0.017; R 0.056; S -0.151; I -0.131; H -0.24; Y -0.295
N37: G 0.092; D -0.026; Q 0.183; E 0.02; W -0.267; C 0.34; K 0.095; A 0.094; V -1.3; F -0.233; T -0.369; H 0.081; S 0.057; Y 0.137; M -0.062; R 0.111
F26: Q -0.37; R -0.018; S -0.343; M 0.062; E -0.176; V -0.164; D -0.4; L -0.297; A -0.204; G -0.278; Y -0.234; H -0.343; T -0.155; I 0.028; N 0.053; K -0.257; P -0.165
S34: P -0.456; C -0.053; D -0.153; K -0.021; T 0.082; V -0.078; I -0.058; W -0.545; E -0.469; A -0.273; R -0.229; H -0.03; L -0.36; Q 0.027; G -0.106
E32: I -0.072; C 0.088; P -0.53; D -0.324; A -0.222; F -0.205; T 0.02; S 0.044; V -0.287; W -0.247; Q -0.17; L 0.005; H 0.103; M 0.142; K 0.156; G -0.063; R 0.201; Y -0.668
E38: Q -0.098; A -0.356; P -0.723; G -0.286; C -0.291; K -0.206; I -0.085; T -0.57; F -0.69; M 0.066; R 0.104; S -0.06; W -0.163; D -0.294; V -0.13; N -0.402; H -0.566
M29: S 0.039; G -0.247; E -0.362; Q -0.15; H -0.31; P -0.267; W -0.522; C -0.026; R 0.278; V -0.318; A -0.297; I -0.652; D -0.552; L -0.274
I35: K -0.057; M 0.023; G -0.14; Q -0.149; E -0.399; Y -0.548; C -0.119; P -1.07; T 0.147; N -0.295; D -0.323; R -0.022; S -0.364; W -0.643; L 0.016; V 0.037
I39: L -0.125; M 0.119; E -0.256; K -0.021; Y 0.076; A -0.029; P -0.055; S -0.129; C -0.216; H 0.245; Q 0.257; V 0.013; R 0.138; T -0.053; N 0.056; G -0.141; W -0.157
